Values joined by “and” are separate entries in the source; they are usually repeats but may differ in a detail not shown here. Equal entries are not always repeated.

The term stoichiometry N denotes a count of units in the complex or per binding partner.

Assay [1] has as its target human serum amyloid A 1.1 (hSAA1.1), without the N-terminal methionine (human) (UniProt P0DJI8). The experiment in a line: SEC; as a1, protein refolded at 8.5 µM; self-association.
The target is the same in assay [2]. The assay is described as follows: SEC; as a1, protein refolded at 75 µM; self-association.
For assay [3] the target is unchanged. The experiment in a line: SEC; Superdex 200 10/300 GL, 4°C, protein refolded at 20 µM, ~30 µL loaded, column in TBS (20 mM Tris/200 mM NaCl, pH 8.3), 0.5 mL/min; sizes from MW standards, globular shape assumed; self-association. On the technique in general: In gel filtration, larger molecules generally elute earlier.
Assay [4] has as its target human serum amyloid A 1.1 with the N-terminal methionine (MetSAA1.1) (human) (UniProt P0DJI8). The assay is described as follows: SEC; as a1, protein refolded at 8.5 µM; self-association.
Assay [5] shares this target. The assay is described as follows: SEC; as a1, protein refolded at 75 µM; self-association.
For assay [6] the target is unchanged. The experiment in a line: SEC; Superdex 200 10/300 GL, 4°C, protein refolded at 20 µM, ~30 µL loaded, column in TBS (20 mM Tris/200 mM NaCl, pH 8.3), 0.5 mL/min; sizes from MW standards, globular shape assumed; self-association.
The target is the same in assay [7]. The assay is described as follows: SEC; "cross-purified" proteins (MetSAA1.1 also passed through Histrap Ni-NTA; hSAA1.1 also purified by cation and anion exchange), compared with "regular" proteins, refolded at 20 µM, 4°C; self-association.

Turning to “human serum amyloid A 1.1 (hSAA1.1), without the N-terminal methionine (from UniProt P0DJI8 19-122) (natural protein)”, the stoichiometry N in assay [1] is 4 and 8; in assay [2], 8 and 6; in assay [3], 8 and 6.
Take “human serum amyloid A 1.1 with the N-terminal methionine (MetSAA1.1) (from UniProt P0DJI8 19-122) (natural protein)”: the stoichiometry N in assay [4] was 8 and 4; in assay [5], 4 and 8; in assay [6], 4 and 8; in assay [7] it was 4.

Values taken from PMC3672174.
